The record followed here is patent US10653749B2, “Targeting GIV-GEF-GI signaling for treating diverse diseases” (The Regents of the University of California, priority 2015, dated 2020).

One experiment has as its system HeLa cells. Put plainly: Actin cytoskeleton remodeling in HeLa cells (phalloidin staining, confocal). The settings on record: ~400 nM TAT peptide. It is filed as cell-based. How it is done: HeLa cell lines were fixed at room temperature with 3% paraformaldehyde for 20-25 min, permeabilized (0.2% Triton X-100) for 45 min and incubated for 1 h each with primary and then secondary antibodies as described (7). Dilutions of antibodies and reagents were as follows: His (1:500); Phalloidin (1:1,000); DAPI (1: 2,000); secondary goat anti-rabbit (594) and goat anti-mouse (488) Alexa-conjugated antibodies (1:500). Coverslips were mounted with ProLong Gold (Life Technologies). Cells were imaged on a Leica SPE confocal microscope using a 63× oil objective using 488, 561, and 405 laser lines for excitation. Images were scanned using a line-average of 3. All images were processed using ImageJ software and assembled into figure panels using Photoshop and Illustrator (Adobe).
For TAT-protein transduction, cells were incubated with 400-800 nM of the TAT-proteins for 30 min at 37° C. prior to three washes with PBS and addition of fresh growth media. For analysis of EGF signaling, subconfluent monolayers of HeLa cells were treated with TAT proteins for 30 min, washed with PBS, and subsequently stimulated with EGF (50 nM) at 4 h after TAT transduction. For scratch-wound assays, HeLa monolayers were treated with TAT proteins before and at 12 h after wounding. For cancer cell invasion assays, highly invasive MDA MB 231 breast cancer cells were plated in 6-well dishes, treated with TAT-peptides for 30 min and subsequently lifted and placed in transwell chamber in the presence of serum-free media. For L×2 myofibroblast activation assays, cells were first treated with TAT-proteins for 30 min, starved in serum-free media, and subsequently treated with 1.5 ng/ml TGF-β for 24 h. TAT-protein transduction was repeated every 8 h during the course of TGFβ stimulation (total 3 treatments). For assays involving insulin stimulation of TAT-treated L6 myotubes, such stimulation was carried out 90 min after transduction. In each case, whole cell lysates prepared from cells in duplicate wells were analyzed for signaling pathways and TAT-protein uptake by immunoblotting.

A further experiment deals with T1, GST-Gαi3 (GDP loaded) (Rattus norvegicus, UniProt P08753).
T1 construct: made in house; host or cells: E. coli BL21(DE3)
The experiment is described as follows: In vitro GST pulldown of TAT-GIV-CT proteins with GST-Gαi3. It is filed as binding. The settings on record: 3 μg TAT protein, 4 h at 4° C., immunoblot with His mAb. The method, then:
Purified GST-Gαi3 or GST alone (5 μg) were immobilized on glutathione-Sepharose beads and incubated with binding buffer [50 mM Tris-HCl (pH 7.4), 100 mM NaCl, 0.4% (vol:vol) Nonidet P-40, 10 mM MgCl2, 5 mM EDTA, 30 μM GDP, 2 mM DTT, protease inhibitor mixture] for 90 min at room temperature as described (49, 50, 52, 54). TAT-GIV-CT (amino acids 1,660-1,870) proteins (3 μg) were added to each tube, and binding reactions were carried out for 4 h at 4° C. with constant tumbling. Beads were washed (four times) with 1 mL of wash buffer [4.3 mM Na2HPO4, 1.4 mM KH2PO4 (pH 7.4), 137 mM NaCl, 2.7 mM KCl, 0.1% (vol:vol) Tween 20, 10 mM MgCl2, 5 mM EDTA, 30 μM GDP, 2 mM DTT] and reduced in Laemmli's sample buffer at 37° C. Immunoblot analysis was performed by infrared imaging following the manufacturer's protocols using an Odyssey imaging system (Li-Cor Biosciences).
In general terms: In western blotting, separated proteins are transferred to a membrane and probed.

Experiment [1] concerns L6 myotubes. Put plainly: Fluorometric 2-deoxyglucose uptake assay after insulin stimulation. It is filed as cell-based, rat. The settings on record: for insulin-stimulated glucose uptake in the basal state: L6 myotubes without PA; for reversal of PA-induced IR (insulin stimulated glucose uptake): PA-treated L6 myotubes. How it is done:
Transfection was carried out with GeneJuice (Novagen) for DNA plasmids or Oligofectamine (Invitrogen) for siRNA oligos according to manufacturer's protocols. Silencer negative Control scrambled (Scr) siRNA used as control was purchased from Ambion and the previously validated (Enomoto et al., 2005) GIV siRNA sequence used was custom-ordered from Dharmacon. For TAT-construct transduction, cells were incubated with 300-800 nM of the TAT-proteins for 30 min at 37° C. prior to three washes with PBS and addition of fresh growth media. For assays involving insulin (Novagen) stimulation of TAT-treated cells, such stimulation was carried out 90 min after transduction.
Unless otherwise indicated, serum starvation of cells for use in experiments involving insulin stimulation was carried out by growing cells overnight in the presence of no serum (i.e., 0% FBS) in the case of Cos7 and L6 cells, or in the presence of 0.2% FBS in the case of HeLa cells. To induce IR, cells were pre-treated with Sodium Palmitate (PA; Sigma-Aldrich) (0.5 mM, stock solution at 5 mM/5% FFA-free BSA in ethanol) or vehicle control (5% FFA-free BSA in ethanol) for 16 h. To reverse IR with TZDs, cells were treated with 50 μM Pioglitazone (Pio) (Sigma-Aldrich) or DMSO (vehicle control) for 18 h prior to stimulation with 100 nM insulin. Treatment with PKCθ pseudo-substrate inhibitor (Santa Cruz Biotechnologies) was performed at 10 μM for 16 h.
Glucose uptake assays were performed without the use of radioisotopes as described previously (Yamamoto et al., 2006). HeLa and L6 cells grown in 6-well plates were stimulated with insulin in KRH Buffer [50 mM HEPES, 137 mM NaCl, 4.7 mM KCl, 1.85 mM CaCl2, 1.3 mM MgSO4, and 0.1% (w/v) BSA-FFA free, pH 7.4]. Cells were incubated with 1 mM 2-deoxyglucose (2-DG) for 20 min, washed, and subsequently lysed with 0.1 N NaOH. The lysates were transferred into eppendorf tubes and samples were incubated in a water bath maintained at 80° C. for 45 min to degrade endogenous NAD(P)H and NAD(P)^+. An equal volume each of 0.1 N HCl and Triethanolamine (200 mM TEA, pH 8.1) buffer were added to each tube. Samples were subsequently mixed with assay solution [50 mM TEA, 0.02% BSA-FFA free, 10 μM NAD(P)^+, 0.2 U/ml Diaphorase, 6 nM Resazurin sodium, 15 U/ml G6PDH (Santa Cruz Biotechnologies)] and incubated at 37° C. for 90 min. Fluorescence intensity (λex=550 nM, λem=590 nM) was determined using a Tecan Inifinite M1000 PRO and normalized to total protein, as determined using BCA assay (Thermo Scientific).

Experiment [2] concerns L6 myotubes. The experiment is described as follows: Uptake of TAT peptides and actin staining in L6 myotubes (confocal). It is filed as cell-based, rat. As to conditions: 0.2% FBS overnight. From the text: Dilutions of antibodies are as follows: anti-phospho-GIV-Tyr1764 (1:200) (Ventana/Roche and Spring Biosciences); anti-HA (1:300) (Covance); anti-GFP, mouse anti-InsRβ and mouse anti-phospho-IRS1 (1:200) from Santa Cruz Biotechnologies; DAPI 1:1,000 (Molecular Probes); Secondary goat anti-rabbit (594) and goat anti-mouse (488) Alexa conjugated antibodies (1:500) from Molecular Probes. Coverslips were mounted with ProLong Gold (Life Technologies). Cells were imaged on a Leica SPE confocal microscope using a 63× oil objective using 488, 561 and 405 laser lines for excitation. Images were scanned using a line-average of 3. All images were processed using ImageJ software and assembled into figure panels using Photoshop and Illustrator (Adobe).
Transfection was carried out with GeneJuice (Novagen) for DNA plasmids or Oligofectamine (Invitrogen) for siRNA oligos according to manufacturer's protocols. Silencer negative Control scrambled (Scr) siRNA used as control was purchased from Ambion and the previously validated (Enomoto et al., 2005) GIV siRNA sequence used was custom-ordered from Dharmacon. For TAT-construct transduction, cells were incubated with 300-800 nM of the TAT-proteins for 30 min at 37° C. prior to three washes with PBS and addition of fresh growth media. […]

T1 sequence (P08753 whole entry): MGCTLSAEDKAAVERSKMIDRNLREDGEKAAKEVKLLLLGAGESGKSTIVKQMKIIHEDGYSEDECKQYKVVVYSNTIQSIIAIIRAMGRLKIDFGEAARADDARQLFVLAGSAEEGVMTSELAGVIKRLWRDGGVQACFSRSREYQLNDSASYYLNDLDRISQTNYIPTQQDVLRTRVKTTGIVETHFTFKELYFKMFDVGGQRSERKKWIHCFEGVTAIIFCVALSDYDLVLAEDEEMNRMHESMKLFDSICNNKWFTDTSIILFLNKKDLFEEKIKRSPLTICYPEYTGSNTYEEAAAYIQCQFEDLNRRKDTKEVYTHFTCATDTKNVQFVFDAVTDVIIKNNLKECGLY

B1: TAT-GIV-CT-WT: Recombinant cell-permeable fusion of TAT-PTD, His and HA tags, linker and human GIV C-terminus (aa 1660-1870), wild type; SEQ ID NO: 2 (protein)
chain: MRGSHHHHHHGMASMTGGQQMGRDLYDDDDKDRWGSKLGYGRKKRRQRRRGGSTMSGYPYDVPDYAGSMGGSGHSGETLESRHHKIKTGSPGSEVVTLQQFLEESNKLTSVQIKSSSQENLLDEVMKSLSVSSDFLGKDKPVSCGLARSVSGKTPGDFYDRRTTKPEFLRPGPRKTEDTYFISSAGKPTPGTQGKIKLVKESSLSRQSKDSNPYATLPRASSVISTAEGTTRRTSIHDFLTKDSRLPISVDSPPAAADSNTTAASNVDKVQESRNSKSRSREQQSS
As to B1, the “actin remodeling / actin stress fibers” value is reported as “triggered actin remodeling” in the experiment on HeLa cells and “not” in the experiment with HeLa cells (listed as WT). The “Binding to GDP-loaded GST-Gαi3 in pulldown” value was “bound” with GST-Gαi3 (GDP loaded) and “binds” in the experiment with GST-Gαi3 (GDP loaded) (listed as WT). The “insulin-stimulated glucose uptake in the basal state” value in the experiment with L6 myotubes [1] is reported as “unaffected”. Further, the “reversal of PA-induced IR (insulin stimulated glucose uptake)” value is recorded as “effectively reverse” with L6 myotubes [1] and “effectively reversed” in the experiment with L6 myotubes [1] (listed as GIV-CT-WT). Further, the “effectiveness in reversing PA-induced IR compared with Pio” value with L6 myotubes [1] (~800 nM of WT peptide) is on record as “as effective as 50 μM Pio”. In addition, the “actin stress-fiber formation in L6 myotubes” value with L6 myotubes [2] is reported as “enhancement”.

B2: TAT-GIV-CT-FA: GEF-deficient F1685A mutant of the TAT-GIV-CT peptide, dominant-negative; SEQ ID NO: 3 (protein)
chain: MRGSHHHHHHGMASMTGGQQMGRDLYDDDDKDRWGSKLGYGRKKRRQRRRGGSTMSGYPYDVPDYAGSMGGSGHSGETLESRHHKIKTGSPGSEVVTLQQALEESNKLTSVQIKSSSQENLLDEVMKSLSVSSDFLGKDKPVSCGLARSVSGKTPGDFYDRRTTKPEFLRPGPRKTEDTYFISSAGKPTPGTQGKIKLVKESSLSRQSKDSNPYATLPRASSVISTAEGTTRRTSIHDFLTKDSRLPISVDSPPAAADSNTTAASNVDKVQESRNSKSRSREQQSS
As to B2, the “actin remodeling / actin stress fibers” value in the experiment with HeLa cells is on record as “suppressed the formation of actin stress fibers”. In addition, the “Binding to GDP-loaded GST-Gαi3 in pulldown” value with GST-Gαi3 (GDP loaded) is listed as “did not bind”; with GST-Gαi3 (GDP loaded) (listed as FA), “not”. Moreover, the “insulin-stimulated glucose uptake in the basal state” value in the experiment on L6 myotubes [1] is “significantly inhibited”. Further, the “reversal of PA-induced IR (insulin stimulated glucose uptake)” value with L6 myotubes [1] was “not”. For the same molecule, the “actin stress-fiber formation in L6 myotubes” value with L6 myotubes [2] was “disrupted”.
